Test results as given in paper PMC8458453, “Structural basis of human PDZD8–Rab7 interaction for the ER-late endosome tethering” (Scientific Reports, 2021).

Molecular target: T1, human Rab7 Q67L (residues 2–195), GTP-loaded (human, UniProt P51149 2-195, Q67L)
T1 construct: Supplemented with 1 mM GTP; Mg2+ and GTP are seen in the structure; also called Rab7A; Rab7-GTP; source: E. coli BL21(DE3), purified (Ni-NTA, thrombin cleavage, SEC; same procedure as the PDZD8 CC)
Experiment: ITC; 1 mM MBP-PDZD8 CC in the syringe injected (2 μl × 25) into 0.1 mM Rab7 in the cell; 20 °C; 20 mM Tris-HCl pH 7.5, 150 mM NaCl; Rab7 Q67L loaded with 1 mM GTP, Rab7 T22N with 1 mM GDP; two-site model for wild type, independent (single-site) model for mutants
Conditions: both partners purified

T1 sequence (P51149 2-195 Q67L): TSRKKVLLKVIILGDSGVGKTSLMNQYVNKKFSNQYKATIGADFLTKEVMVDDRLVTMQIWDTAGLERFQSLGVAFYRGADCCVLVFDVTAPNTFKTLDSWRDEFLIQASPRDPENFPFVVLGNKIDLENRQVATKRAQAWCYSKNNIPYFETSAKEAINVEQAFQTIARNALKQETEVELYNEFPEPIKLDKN

B1: MBP-PDZD8 CC, residues 980–1123 (domain or fragment, human, UniProt Q8NEN9 980-1123, looked up)
chain: SDTEVCGPNSPSKRGNSTGIKLVRKEGGLDDSVFIAVKEIGRDLYRGLPTEERIQKLEFMLDKLQNEIDQELEHNNSLVREEKETTDTRKKSLLSAALAKSGERLQALTLLMIHYRAGIEDIETLESLSLDQHSKKISKYTDDT
notes: source: purified recombinant protein; not shown: His tag, N-terminal, kept; MBP, N-terminal, kept
B1: binds.

B2: MBP-PDZD8 CC A1086R (domain or fragment, human, UniProt Q8NEN9 994-1123, looked up)
chain: GNSTGIKLVRKEGGLDDSVFIAVKEIGRDLYRGLPTEERIQKLEFMLDKLQNEIDQELEHNNSLVREEKETTDTRKKSLLSAALAKSGERLQRLTLLMIHYRAGIEDIETLESLSLDQHSKKISKYTDDT
notes: also called PDZD8 A1086R; source: purified recombinant protein; not shown: His tag, N-terminal, kept; MBP, N-terminal, kept
Work on B2 yielded a Kd of 0.66 µM.

B3: MBP-PDZD8 CC I1092E (domain or fragment, human, UniProt Q8NEN9 994-1123, looked up)
chain: GNSTGIKLVRKEGGLDDSVFIAVKEIGRDLYRGLPTEERIQKLEFMLDKLQNEIDQELEHNNSLVREEKETTDTRKKSLLSAALAKSGERLQALTLLMEHYRAGIEDIETLESLSLDQHSKKISKYTDDT
notes: also called PDZD8 I1092E; source: purified recombinant protein; not shown: His tag, N-terminal, kept; MBP, N-terminal, kept
B3 gave a Kd of 9.2 µM.
